{
  "source": "patent US20260049134A1",
  "about": "(UNIVERSITY OF FLORIDA RESEARCH FOUNDATION, published 2026)",
  "key": {"[1]": {"target": "T1, ICAM1, endogenous in H929 multiple myeloma cells (human, UniProt P05362 28-532)", "T1 construct": "Native protein on H929 cells (flow cytometry, siRNA knockdown) and in H929 lysates (IP/MS); also called CD54", "T1 sequence (P05362 28-532 limits assumed)": "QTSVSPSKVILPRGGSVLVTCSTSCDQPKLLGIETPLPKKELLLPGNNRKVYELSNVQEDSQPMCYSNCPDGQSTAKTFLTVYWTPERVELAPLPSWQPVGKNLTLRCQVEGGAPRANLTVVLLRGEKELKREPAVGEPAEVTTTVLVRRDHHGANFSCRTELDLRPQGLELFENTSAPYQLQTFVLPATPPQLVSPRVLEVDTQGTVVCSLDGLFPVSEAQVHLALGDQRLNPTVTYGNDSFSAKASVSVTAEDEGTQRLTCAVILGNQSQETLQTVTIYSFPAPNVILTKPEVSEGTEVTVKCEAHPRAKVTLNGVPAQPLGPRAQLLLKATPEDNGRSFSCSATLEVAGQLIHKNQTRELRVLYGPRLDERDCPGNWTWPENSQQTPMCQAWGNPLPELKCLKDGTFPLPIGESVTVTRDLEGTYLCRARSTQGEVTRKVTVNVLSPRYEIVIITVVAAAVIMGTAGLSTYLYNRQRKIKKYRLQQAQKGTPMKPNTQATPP", "test": "flow cytometry, AF647-IgG1 on H929 cells", "description": "(§1) Staining protocol. Cells were harvested (5×10⁴ cells per sample), washed once with phosphate-buffered saline (PBS) at RT, and a second time with ice-cold FACS buffer (PBS, 0.5% BSA, 2 mM EDTA, 0.1% NaN₃). Cells were stained in 50 μL of primary antibody for 30 min on ice, washed twice with 100 μL FACS buffer, stained with 50 μL of diluted secondary antibody, washed two more times in FACS, and then resuspended in 50 μL FACS buffer. Samples were acquired on an Accuri C6 Plus or a BD FACSCanto II flow cytometer (both from BD Biosciences). Data were analyzed using FlowJo version 10 software. Primary antibodies: Fab (10 μg/mL), IgG1 (0.1 to 50 μg/mL), or 25 μL polyclonal Fabs from periplasmic extracts. Polyclonal Fabs were produced by diluting bacterial stocks by a factor of 100 in autoinduction media and incubating overnight to induce expression as previously described. […] Viability stains: DAPI (Cell Signaling Technology) or SYTOX AADvanced Dead Cell Stain (Thermo Fisher Scientific). Labeling: The panel of chimeric rabbit/human IgG1s was labeled using the Alexa Fluor 647 Labeling Kit (Thermo Fisher Scientific, #A20173) to facilitate single-step staining. Competition: Unlabeled IgG1s were added at saturating concentrations of 60 μg/mL to block the target receptors, incubating on ice for 30 min, followed by the addition of an equal volume of the Alexa Fluor 647 labeled antibody at 2 μg/mL, and the mixture was incubated on ice for another 30 min."}, "[2]": {"target": "T2, PTPRG, endogenous in H929 multiple myeloma cells (human, UniProt P23470 20-1445)", "T2 construct": "Native protein on H929 cells (flow cytometry, siRNA knockdown) and in H929 lysates (IP/MS); also called phosphatase receptor type γ", "T2 sequence (P23470 20-1445 limits assumed)": "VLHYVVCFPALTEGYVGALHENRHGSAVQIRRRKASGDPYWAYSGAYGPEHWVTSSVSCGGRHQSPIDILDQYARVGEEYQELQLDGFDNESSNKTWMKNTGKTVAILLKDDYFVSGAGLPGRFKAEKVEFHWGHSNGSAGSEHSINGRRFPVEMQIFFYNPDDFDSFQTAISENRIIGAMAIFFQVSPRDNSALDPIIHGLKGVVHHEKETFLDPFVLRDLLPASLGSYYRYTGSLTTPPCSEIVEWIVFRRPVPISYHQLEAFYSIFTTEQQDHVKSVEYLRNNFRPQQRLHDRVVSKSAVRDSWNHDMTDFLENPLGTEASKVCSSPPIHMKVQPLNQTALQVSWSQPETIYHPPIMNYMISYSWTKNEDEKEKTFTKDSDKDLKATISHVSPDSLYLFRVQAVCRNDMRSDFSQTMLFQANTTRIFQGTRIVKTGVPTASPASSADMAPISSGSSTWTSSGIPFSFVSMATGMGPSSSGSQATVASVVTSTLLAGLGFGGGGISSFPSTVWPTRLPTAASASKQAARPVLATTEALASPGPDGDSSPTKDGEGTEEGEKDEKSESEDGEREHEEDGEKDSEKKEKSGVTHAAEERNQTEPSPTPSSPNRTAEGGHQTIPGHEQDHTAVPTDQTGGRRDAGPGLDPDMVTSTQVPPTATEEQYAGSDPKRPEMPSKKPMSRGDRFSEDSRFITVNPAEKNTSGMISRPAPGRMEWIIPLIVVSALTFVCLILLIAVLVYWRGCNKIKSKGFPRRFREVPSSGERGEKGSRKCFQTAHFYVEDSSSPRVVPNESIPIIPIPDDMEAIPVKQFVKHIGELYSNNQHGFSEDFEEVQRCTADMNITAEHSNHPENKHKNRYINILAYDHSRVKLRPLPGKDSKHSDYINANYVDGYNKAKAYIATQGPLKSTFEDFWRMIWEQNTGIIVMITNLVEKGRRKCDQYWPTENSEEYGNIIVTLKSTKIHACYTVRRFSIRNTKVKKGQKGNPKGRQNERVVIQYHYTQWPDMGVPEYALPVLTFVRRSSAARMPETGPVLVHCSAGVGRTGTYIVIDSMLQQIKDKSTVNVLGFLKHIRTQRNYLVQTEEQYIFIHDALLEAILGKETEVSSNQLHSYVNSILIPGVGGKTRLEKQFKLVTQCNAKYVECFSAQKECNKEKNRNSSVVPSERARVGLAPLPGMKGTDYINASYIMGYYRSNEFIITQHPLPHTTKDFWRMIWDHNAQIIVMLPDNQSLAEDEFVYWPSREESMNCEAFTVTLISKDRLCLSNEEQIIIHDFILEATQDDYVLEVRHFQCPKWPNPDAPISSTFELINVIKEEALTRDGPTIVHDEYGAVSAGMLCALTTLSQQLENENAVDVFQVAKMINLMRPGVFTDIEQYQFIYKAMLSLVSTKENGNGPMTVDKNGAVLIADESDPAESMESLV", "test": "flow cytometry, AF647-IgG1 on H929 cells", "description": "as §1"}, "[3]": {"target": "T3, PTPRG on U266 cells (human, UniProt P23470)", "T3 construct": "endogenous on U266 multiple myeloma cells; also called HW-1 target on U266", "T3 sequence (P23470 20-1445 limits assumed)": "as above", "test": "flow cytometry, IgG1 on cell lines, heatmap of % positive cells"}, "[4]": {"target": "T2, PTPRG, endogenous in H929 multiple …", "test": "flow cytometry, IgG1 on cell lines, heatmap of % positive cells"}, "[5]": {"target": "T2, PTPRG, endogenous in H929 multiple …", "test": "flow cytometry, H929 + GARS siRNA; None 452"}, "[6]": {"target": "T2, PTPRG, endogenous in H929 multiple …", "test": "flow cytometry, H929 + CDH18 siRNA; None 443"}, "[7]": {"target": "T2, PTPRG, endogenous in H929 multiple …", "test": "flow cytometry, H929 + GARS siRNA; None 0.2"}, "[8]": {"target": "T2, PTPRG, endogenous in H929 multiple …", "test": "flow cytometry, H929 + CDH18 siRNA; None 0.19"}, "[9]": {"target": "T4, CADM1, endogenous in H929 multiple myeloma cells (human, UniProt Q9BY67 45-442)", "T4 construct": "Native protein on H929 cells (flow cytometry, siRNA knockdown) and in H929 lysates (IP/MS); RPMI-8226 cells were used for sorting with HW-97; also called IGSF4A", "T4 sequence": "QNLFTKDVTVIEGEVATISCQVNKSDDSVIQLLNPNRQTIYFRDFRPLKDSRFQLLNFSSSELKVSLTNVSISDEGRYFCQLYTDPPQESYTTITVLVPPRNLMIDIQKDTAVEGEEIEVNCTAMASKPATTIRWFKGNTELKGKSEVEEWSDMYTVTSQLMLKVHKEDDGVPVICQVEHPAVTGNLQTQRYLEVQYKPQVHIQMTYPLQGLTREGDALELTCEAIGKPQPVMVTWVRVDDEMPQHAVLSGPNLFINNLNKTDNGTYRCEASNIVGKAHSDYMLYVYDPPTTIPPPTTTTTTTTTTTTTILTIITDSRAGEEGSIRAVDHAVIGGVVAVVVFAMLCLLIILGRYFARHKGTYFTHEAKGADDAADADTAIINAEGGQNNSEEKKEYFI", "test": "flow cytometry, H929 + GARS siRNA; None 452"}, "[10]": {"target": "T4, CADM1, endogenous in H929 multiple …", "test": "flow cytometry, H929 + CDH18 siRNA; None 443"}, "[11]": {"target": "T4, CADM1, endogenous in H929 multiple …", "test": "flow cytometry, H929 + GARS siRNA; None 0.2"}, "[12]": {"target": "T4, CADM1, endogenous in H929 multiple …", "test": "flow cytometry, H929 + CDH18 siRNA; None 0.19"}, "[13]": {"target": "T1, ICAM1, endogenous in H929 multiple …", "test": "flow cytometry, H929 + GARS siRNA; None 452"}, "[14]": {"target": "T1, ICAM1, endogenous in H929 multiple …", "test": "flow cytometry, H929 + CDH18 siRNA; None 443"}, "[15]": {"target": "T1, ICAM1, endogenous in H929 multiple …", "test": "flow cytometry, H929 + GARS siRNA; None 0.2"}, "[16]": {"target": "T1, ICAM1, endogenous in H929 multiple …", "test": "flow cytometry, H929 + CDH18 siRNA; None 0.19"}},
  "data": [
    {"binder": "TH9-0022 (antibody, human IgG1, kappa, L234A L235A, V domains shown, also called TH9-022; negative control) VH: QSLEESGGRLVTPGTPLTLTCTVSGFSLSSYAMNWVRQAPGKGLEWIGIINSYGSTYYASWAKGRFTISKTSTTVDLKITSPTTEDTATYFCARVTYDSYGYGYAPYGMDLWGPGTLVTVSS VL: LVMTQTPSSTSNAVGGTVTIKCQASQSIGNVLAWYQQKPGQPPKLLIYAASTLASGVPSRVGGSRSGTEYTLTISGVQREDAATYYCLGSDSDSDIAFGGGTELEILR", "values": [
      {"measurement": "binding result", "setting": "[1]", "value": "no binding"},
      {"measurement": "binding result", "setting": "[2]", "value": "no binding"}
    ]},
    {"binder": "TH9-0022 (antibody, human IgG1, kappa, L234A L235A, V domains shown, also called TH9-022; negative control IgG1) VH: QSLEESGGRLVTPGTPLTLTCTVSGFSLSSYAMNWVRQAPGKGLEWIGIINSYGSTYYASWAKGRFTISKTSTTVDLKITSPTTEDTATYFCARVTYDSYGYGYAPYGMDLWGPGTLVTVSS VL: LVMTQTPSSTSNAVGGTVTIKCQASQSIGNVLAWYQQKPGQPPKLLIYAASTLASGVPSRVGGSRSGTEYTLTISGVQREDAATYYCLGSDSDSDIAFGGGTELEILR", "values": [
      {"measurement": "binding result", "setting": "[3]", "value": "no binding"},
      {"measurement": "binding result", "setting": "[4]", "value": "no binding"}
    ]},
    {"binder": "HW-42 chimeric rabbit-human IgG1 LA/LA/PG (antibody, V domains shown, Fc-silenced (L234A/L235A/P329G) IgG1, lambda; Alexa Fluor 647-labeled in single-step flow cytometry; Cluster C-1) VH: QSVKESEGGLFKPADTLTLTCTVSGFSLSSNEISWVRQAPGEGLEYIGIIDTGGRAYYAVWARSRSTITRNTNLNTVTLKMTSLTAADTATYFCARGGVDTEWYAFSSWGPGTLVTVPS VL: SFVLTQPASVQVNLGQTVSLTCTADTLSRRYASWYQQKPGQAPVLLIFRDTSRPSGVPDRFSGSSSGDTATLTISGAQAGDEADYYCATSDGSGSNYQYVFGGGTQLTVTG", "values": [
      {"measurement": "mAb binding (MFI)", "setting": "[5]", "value": 9850},
      {"measurement": "mAb binding (MFI)", "setting": "[6]", "value": 9870},
      {"measurement": "Cells stained (%)", "setting": "[7]", "value": 98.8, "unit": "%"},
      {"measurement": "Cells stained (%)", "setting": "[8]", "value": 99.5, "unit": "%"}
    ]},
    {"binder": "HW-97 chimeric rabbit-human IgG1 LA/LA/PG (antibody, V domains shown, Fc-silenced (L234A/L235A/P329G) IgG1, lambda; Alexa Fluor 647-labeled in single-step flow cytometry; Prototype of cluster C-97) VH: QKQLVESGGRLVTPGTPLTLTCTVTGIDLSSHGMSWVRQAPGKGLEWIGVIYPSGSTWYASWARGRFTISKTSTTVDLKMTSLTTEDTATHFCARGDVGGADNNIWGPGTLVTVSS VL: SFVLTQPASVQVDLGQTVSLTCTAETLSRSYASWYQQKPGQAPVLLIYRDTSRPSGVPDRFSGSSSGNTATLTISGAQAGDEADYYCATSDGSGSSYQYVFGGGTQLTVTG", "values": [
      {"measurement": "mAb binding (MFI)", "setting": "[9]", "value": 22100},
      {"measurement": "mAb binding (MFI)", "setting": "[10]", "value": 17900},
      {"measurement": "Cells stained (%)", "setting": "[11]", "value": 99.9, "unit": "%"},
      {"measurement": "Cells stained (%)", "setting": "[12]", "value": 99.7, "unit": "%"}
    ]},
    {"binder": "HW-113 chimeric rabbit-human IgG1 LA/LA/PG (antibody, V domains shown, Fc-silenced (L234A/L235A/P329G) IgG1, lambda; Alexa Fluor 647-labeled in single-step flow cytometry) VH: QKQLVESGGGLVQPGGSLTLTCTVSGFSLNKYYMGWFRQAPGKGLEWIGVISRSGDTYYSSWAKGRFTISKASTTVDLRITSPTTEDTATYFCARDASSPGFHGDRLDLWGQGTLVTVSS VL: SFVLTQPASVQVNLGQTVSLTCTADTLSRSYASWYQQKPGQAPVLLIYRDTSRPSGVPDRFSGSSSGNTATLTISGAQAGDEADYYCATSDGIGSNYLWVFGGGTQLTVTG", "values": [
      {"measurement": "mAb binding (MFI)", "setting": "[13]", "value": 43200},
      {"measurement": "mAb binding (MFI)", "setting": "[14]", "value": 18200},
      {"measurement": "Cells stained (%)", "setting": "[15]", "value": 99.8, "unit": "%"},
      {"measurement": "Cells stained (%)", "setting": "[16]", "value": 98.8, "unit": "%"}
    ]}
  ]
}
